Measured values published in patent publication US20120316071A1 (published 2012).

Legend:
[1] = biological target: T1, Recombinant Human DLL4 (delta-like protein 4) (human, UniProt Q9NR61 27-524); assay: ELISA, DLL4-coated plate, 100 nM Fab
T1 construct: Bought recombinant human DLL4 (R&D Systems Cat#1506-D4/CF); also called rHuman DLL4

[2] = biological target: T1, Recombinant Human DLL4 (delta-like …); assay: ECL (MSD) binding assay, immobilised DLL4, 10 nM Fab;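 also: fab binding read as electrochemiluminescence via a TAG-labelled detection antibody, 1 h incubations at 20 °C, antigen signal compared with each well's blank, ratio of at least 4 scored as binder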
[3] = biological target: T2, Recombinant Human DLL4 (delta-like protein 4) (human, UniProt Q9NR61 27-524); assay: SPR, Fab on recombinant human DLL4
T2 construct: Bought recombinant human DLL4 (R&D Systems Cat#1506-D4/CF); also called rHuman DLL4; Delta-like ligand 4

| Binder | ELISA Signal [100 nM Fab] [1] | ECL Signal [10 nM Fab] [2] | Kd [3] [nM] | koff [3] [s⁻¹] | kon [3] [M⁻¹ s⁻¹] |
| --- | --- | --- | --- | --- | --- |
| Fab VH5-51_IGHD5-18*01>3_IGHJ4*01 G100K/G104T & V3-4_IGLJ1*01 M94P (Fab, V domains shown, Fab; expressed with CH1 (His and Flag tags) and lambda CL from the expression plasmids; also called H:KT & M94P) VH: EVQLVQSGAEVKKPGESLKISCKGSGYSFTSYWIGWVRQMPGKGLEWMGIIYPGDSDTRYSPSFQGQVTISADKSISTAYLQWSSLKASDTAMYYCARRKYSYTYDYFDYWGQGTLVTVSS VL: QTVVTQEPSFSVSPGGTVTLTCGLSSGSVSTSYYPSWYQQTPGQAPRTLIYSTNTRSSGVPDRFSGSILGNKAALTITGAQADDESDYYCVLYPGSGISYVFGTGTKVTVL | 0.01 | 39900 | – | – | – |
| Fab VH5-51_IGHD5-18*01>3_IGHJ4*01 G100K/G104T & V3-4_IGLJ1*01 M94E (Fab, V domains shown, Fab; expressed with CH1 (His and Flag tags) and lambda CL from the expression plasmids; also called H:KT & M94E) VH: EVQLVQSGAEVKKPGESLKISCKGSGYSFTSYWIGWVRQMPGKGLEWMGIIYPGDSDTRYSPSFQGQVTISADKSISTAYLQWSSLKASDTAMYYCARRKYSYTYDYFDYWGQGTLVTVSS VL: QTVVTQEPSFSVSPGGTVTLTCGLSSGSVSTSYYPSWYQQTPGQAPRTLIYSTNTRSSGVPDRFSGSILGNKAALTITGAQADDESDYYCVLYEGSGISYVFGTGTKVTVL | 0.01 | 32500 | – | – | – |
| Fab VH5-51_IGHD5-18*01>3_IGHJ4*01 G100K/G104T & V3-4_IGLJ1*01 S96W (Fab, V domains shown, Fab; expressed with CH1 (His and Flag tags) and lambda CL from the expression plasmids; also called H:KT & S96W) VH: EVQLVQSGAEVKKPGESLKISCKGSGYSFTSYWIGWVRQMPGKGLEWMGIIYPGDSDTRYSPSFQGQVTISADKSISTAYLQWSSLKASDTAMYYCARRKYSYTYDYFDYWGQGTLVTVSS VL: QTVVTQEPSFSVSPGGTVTLTCGLSSGSVSTSYYPSWYQQTPGQAPRTLIYSTNTRSSGVPDRFSGSILGNKAALTITGAQADDESDYYCVLYMGWGISYVFGTGTKVTVL | 0.02 | 52300 | – | – | – |
| Fab VH5-51_IGHD5-18*01>3_IGHJ4*01 G100K/G104T & V3-4_IGLJ1*01 V91H (Fab, V domains shown, Fab; expressed with CH1 (His and Flag tags) and lambda CL from the expression plasmids; also called H:KT & V91H) VH: EVQLVQSGAEVKKPGESLKISCKGSGYSFTSYWIGWVRQMPGKGLEWMGIIYPGDSDTRYSPSFQGQVTISADKSISTAYLQWSSLKASDTAMYYCARRKYSYTYDYFDYWGQGTLVTVSS VL: QTVVTQEPSFSVSPGGTVTLTCGLSSGSVSTSYYPSWYQQTPGQAPRTLIYSTNTRSSGVPDRFSGSILGNKAALTITGAQADDESDYYCHLYMGSGISYVFGTGTKVTVL | 0.01 | 27100 | – | – | – |
| Fab VH5-51_IGHD5-18*01>3_IGHJ4*01 G100K/G104T & V3-4_IGLJ1*01 V91E (Fab, V domains shown, Fab; expressed with CH1 (His and Flag tags) and lambda CL from the expression plasmids; also called H:KT & V91E) VH: EVQLVQSGAEVKKPGESLKISCKGSGYSFTSYWIGWVRQMPGKGLEWMGIIYPGDSDTRYSPSFQGQVTISADKSISTAYLQWSSLKASDTAMYYCARRKYSYTYDYFDYWGQGTLVTVSS VL: QTVVTQEPSFSVSPGGTVTLTCGLSSGSVSTSYYPSWYQQTPGQAPRTLIYSTNTRSSGVPDRFSGSILGNKAALTITGAQADDESDYYCELYMGSGISYVFGTGTKVTVL | 0 | 22500 | – | – | – |
| Fab VH5-51_IGHD5-18*01>3_IGHJ4*01 G100K/G104T & V3-4_IGLJ1*01 M94G (Fab, V domains shown, Fab; expressed with CH1 (His and Flag tags) and lambda CL from the expression plasmids; also called H:KT & M94G) VH: EVQLVQSGAEVKKPGESLKISCKGSGYSFTSYWIGWVRQMPGKGLEWMGIIYPGDSDTRYSPSFQGQVTISADKSISTAYLQWSSLKASDTAMYYCARRKYSYTYDYFDYWGQGTLVTVSS VL: QTVVTQEPSFSVSPGGTVTLTCGLSSGSVSTSYYPSWYQQTPGQAPRTLIYSTNTRSSGVPDRFSGSILGNKAALTITGAQADDESDYYCVLYGGSGISYVFGTGTKVTVL | 0.01 | 20300 | – | – | – |
| Fab VH5-51_IGHD5-18*01>3_IGHJ4*01 G100K/G104T & V3-4_IGLJ1*01 M94V (Fab, V domains shown, Fab; expressed with CH1 (His and Flag tags) and lambda CL from the expression plasmids; also called H:KT & M94V) VH: EVQLVQSGAEVKKPGESLKISCKGSGYSFTSYWIGWVRQMPGKGLEWMGIIYPGDSDTRYSPSFQGQVTISADKSISTAYLQWSSLKASDTAMYYCARRKYSYTYDYFDYWGQGTLVTVSS VL: QTVVTQEPSFSVSPGGTVTLTCGLSSGSVSTSYYPSWYQQTPGQAPRTLIYSTNTRSSGVPDRFSGSILGNKAALTITGAQADDESDYYCVLYVGSGISYVFGTGTKVTVL | 0.02 | 47300 | – | – | – |
| Fab VH5-51_IGHD5-18*01>3_IGHJ4*01 G100K/G104T & V3-4_IGLJ1*01 M94S (Fab, V domains shown, Fab; expressed with CH1 (His and Flag tags) and lambda CL from the expression plasmids; also called H:KT & M94S) VH: EVQLVQSGAEVKKPGESLKISCKGSGYSFTSYWIGWVRQMPGKGLEWMGIIYPGDSDTRYSPSFQGQVTISADKSISTAYLQWSSLKASDTAMYYCARRKYSYTYDYFDYWGQGTLVTVSS VL: QTVVTQEPSFSVSPGGTVTLTCGLSSGSVSTSYYPSWYQQTPGQAPRTLIYSTNTRSSGVPDRFSGSILGNKAALTITGAQADDESDYYCVLYSGSGISYVFGTGTKVTVL | 0.02 | 49600 | – | – | – |
| Fab VH5-51_IGHD5-18*01>3_IGHJ4*01 G100K/G104T & V3-4_IGLJ1*01 M94D (Fab, V domains shown, Fab; expressed with CH1 (His and Flag tags) and lambda CL from the expression plasmids; also called H:KT & M94D) VH: EVQLVQSGAEVKKPGESLKISCKGSGYSFTSYWIGWVRQMPGKGLEWMGIIYPGDSDTRYSPSFQGQVTISADKSISTAYLQWSSLKASDTAMYYCARRKYSYTYDYFDYWGQGTLVTVSS VL: QTVVTQEPSFSVSPGGTVTLTCGLSSGSVSTSYYPSWYQQTPGQAPRTLIYSTNTRSSGVPDRFSGSILGNKAALTITGAQADDESDYYCVLYDGSGISYVFGTGTKVTVL | 0.01 | 52700 | – | – | – |
| Fab VH1-46_IGHD6-6*01_IGHJ1*01 S102A/S103P/S104F/H111F I51V/N52L/S54T/G56H (APFF VLTH) & L6_IGKJ1*01 S28N/S30D/S31H S52L/A55S (NDH LS) (Fab, V domains shown, Fab with CH1 (Plasmid A, His6 and Flag tags) and kappa CL (Plasmid C); also called H:APFF VLTH & L:NDH LS) VH: QVQLVQSGAEVKKPGASVKVSCKASGYTFTSYYMHWVRQAPGQGLEWMGIVLPTGHSTSYAQKFQGRVTMTRDTSTSTVYMELSSLRSEDTAVYYCAREEYAPFSAEYFQFWGQGTLVTVSS VL: EIVLTQSPATLSLSPGERATLSCRASQNVDHYLAWYQQKPGQAPRLLIYDALNRSTGIPARFSGSGSGTDFTLTISSLEPEDFAVYYCQQRSNWPPWTFGQGTKVEIKR | – | – | 1.7 | 0.00109 | 684000 |
